Drawing on patent publication US20100015650, this text covers Signal to Noise ratio with BRB1 Peptide (TR-FRET kinase assay; kinase 0.1 nM), Signal to Noise ratio with BRB1 Peptide (TR-FRET kinase assay; kinase 0.5 nM) and Signal to Noise ratio with BRB1 Peptide (TR-FRET kinase assay; kinase 0.25 nM) for eight substances.

The data set relates to BRB1 tyrosine kinase substrate peptide.
Chain of BRB1 tyrosine kinase substrate peptide (chain, as listed by the source): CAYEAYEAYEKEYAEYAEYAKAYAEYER

Chain of BLK (chain, as listed by the source): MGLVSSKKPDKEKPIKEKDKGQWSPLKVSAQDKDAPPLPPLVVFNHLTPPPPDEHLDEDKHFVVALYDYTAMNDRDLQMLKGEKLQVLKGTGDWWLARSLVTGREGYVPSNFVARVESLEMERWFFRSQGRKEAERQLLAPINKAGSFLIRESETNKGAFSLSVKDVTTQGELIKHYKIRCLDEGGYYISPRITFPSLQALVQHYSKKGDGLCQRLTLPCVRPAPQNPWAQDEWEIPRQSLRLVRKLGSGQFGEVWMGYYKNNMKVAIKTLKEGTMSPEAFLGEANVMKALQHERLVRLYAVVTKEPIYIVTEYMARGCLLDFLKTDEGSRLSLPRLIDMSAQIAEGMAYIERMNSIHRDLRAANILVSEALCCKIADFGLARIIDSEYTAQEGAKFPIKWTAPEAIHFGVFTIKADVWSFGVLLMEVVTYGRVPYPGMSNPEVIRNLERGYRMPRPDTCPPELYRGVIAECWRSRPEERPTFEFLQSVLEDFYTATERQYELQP
Chain of TRKC (NTRK3) (chain, as listed by the source): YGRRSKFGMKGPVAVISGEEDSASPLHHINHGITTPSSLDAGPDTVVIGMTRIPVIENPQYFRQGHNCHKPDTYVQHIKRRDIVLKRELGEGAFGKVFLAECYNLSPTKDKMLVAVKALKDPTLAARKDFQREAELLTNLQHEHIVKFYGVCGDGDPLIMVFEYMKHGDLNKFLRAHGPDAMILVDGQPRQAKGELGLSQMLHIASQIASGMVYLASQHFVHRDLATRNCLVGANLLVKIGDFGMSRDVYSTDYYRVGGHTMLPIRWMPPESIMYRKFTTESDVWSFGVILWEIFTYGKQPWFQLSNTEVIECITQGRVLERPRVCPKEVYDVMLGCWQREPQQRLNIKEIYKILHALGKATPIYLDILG
Chain of TRKA (NTRK1) (chain, as listed by the source): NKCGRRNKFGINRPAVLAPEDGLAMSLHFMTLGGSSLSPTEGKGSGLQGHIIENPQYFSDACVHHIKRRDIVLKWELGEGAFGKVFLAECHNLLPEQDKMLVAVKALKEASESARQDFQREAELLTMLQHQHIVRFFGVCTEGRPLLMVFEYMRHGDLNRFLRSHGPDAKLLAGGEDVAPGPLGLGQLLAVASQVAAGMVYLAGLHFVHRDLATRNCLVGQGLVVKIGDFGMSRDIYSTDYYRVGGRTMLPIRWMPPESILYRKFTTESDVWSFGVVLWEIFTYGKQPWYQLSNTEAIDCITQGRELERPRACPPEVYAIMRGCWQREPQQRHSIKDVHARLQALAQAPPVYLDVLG
Chain of TRKB (NTRK2) (chain, as listed by the source): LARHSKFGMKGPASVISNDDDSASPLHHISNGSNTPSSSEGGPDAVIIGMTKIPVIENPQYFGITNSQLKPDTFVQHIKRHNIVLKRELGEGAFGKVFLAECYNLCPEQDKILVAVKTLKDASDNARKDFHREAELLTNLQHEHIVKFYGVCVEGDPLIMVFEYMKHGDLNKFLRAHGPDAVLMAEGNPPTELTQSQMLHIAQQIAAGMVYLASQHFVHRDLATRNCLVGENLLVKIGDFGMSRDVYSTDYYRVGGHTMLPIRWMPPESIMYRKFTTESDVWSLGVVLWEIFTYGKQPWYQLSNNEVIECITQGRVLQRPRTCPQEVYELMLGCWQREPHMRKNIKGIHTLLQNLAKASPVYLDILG
Chain of YES (chain, as listed by the source): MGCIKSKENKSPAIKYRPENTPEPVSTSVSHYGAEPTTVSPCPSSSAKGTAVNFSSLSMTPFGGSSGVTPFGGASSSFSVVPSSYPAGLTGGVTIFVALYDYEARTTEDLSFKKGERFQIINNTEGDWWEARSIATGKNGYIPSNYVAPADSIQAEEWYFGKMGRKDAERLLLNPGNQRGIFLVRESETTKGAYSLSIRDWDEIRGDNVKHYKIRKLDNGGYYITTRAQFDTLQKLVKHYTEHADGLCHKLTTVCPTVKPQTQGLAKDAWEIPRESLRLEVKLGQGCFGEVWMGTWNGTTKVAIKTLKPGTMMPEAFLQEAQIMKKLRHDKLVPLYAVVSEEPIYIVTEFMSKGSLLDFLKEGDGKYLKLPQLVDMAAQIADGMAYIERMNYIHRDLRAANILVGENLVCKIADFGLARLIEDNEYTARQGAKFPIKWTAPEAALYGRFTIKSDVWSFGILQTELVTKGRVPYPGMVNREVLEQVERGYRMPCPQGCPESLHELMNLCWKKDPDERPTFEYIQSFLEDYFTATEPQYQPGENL
Chain of EphA7 (chain, as listed by the source): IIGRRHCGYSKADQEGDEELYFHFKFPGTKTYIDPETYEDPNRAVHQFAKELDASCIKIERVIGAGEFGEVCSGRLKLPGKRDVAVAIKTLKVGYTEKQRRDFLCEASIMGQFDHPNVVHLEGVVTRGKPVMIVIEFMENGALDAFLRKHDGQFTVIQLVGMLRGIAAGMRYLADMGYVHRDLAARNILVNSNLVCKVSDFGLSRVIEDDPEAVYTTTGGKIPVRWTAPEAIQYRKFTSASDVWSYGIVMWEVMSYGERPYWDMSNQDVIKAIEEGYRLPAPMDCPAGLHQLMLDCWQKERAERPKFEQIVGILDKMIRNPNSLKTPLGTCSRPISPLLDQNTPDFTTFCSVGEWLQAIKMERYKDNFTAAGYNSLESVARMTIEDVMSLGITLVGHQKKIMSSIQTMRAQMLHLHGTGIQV

FGR: the Signal to Noise ratio with BRB1 Peptide (TR-FRET kinase assay; kinase 0.1 nM) was determined as 29.3.
EphA7: the Signal to Noise ratio with BRB1 Peptide (TR-FRET kinase assay; kinase 0.5 nM) came out at 17.2.
On the same count and under the same terms, the figure for BLK is 31.
For YES, the Signal to Noise ratio with BRB1 Peptide (TR-FRET kinase assay; kinase 0.25 nM) was found to be 28.
With TRKC (NTRK3), the Signal to Noise ratio with BRB1 Peptide (TR-FRET kinase assay; kinase 0.5 nM) was 6.4.
Turning to TRKA (NTRK1), the Signal to Noise ratio with BRB1 Peptide (TR-FRET kinase assay; kinase 0.5 nM) was 23.2.
Still for that read-out and setting: the figure for TRKB (NTRK2) is 28; for LYNa it is 32.5.
